Here are results for one molecule from patent publication US20140274782A1 (Stanford University, published 2014).

Common to all, as to test: ProtoArray, GST-treated control array;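 also: human protein microarray (about 9500 recombinant proteins) incubated overnight with GST alone plus SAM cofactor as the negative control for G9a SET domain methylation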
In assay [1] the target is T1, PPIL5-Peptidylprolyl isomerase-like 5 (human, UniProt Q96L50 1-414, limits assumed).
T1 sequence (looked up): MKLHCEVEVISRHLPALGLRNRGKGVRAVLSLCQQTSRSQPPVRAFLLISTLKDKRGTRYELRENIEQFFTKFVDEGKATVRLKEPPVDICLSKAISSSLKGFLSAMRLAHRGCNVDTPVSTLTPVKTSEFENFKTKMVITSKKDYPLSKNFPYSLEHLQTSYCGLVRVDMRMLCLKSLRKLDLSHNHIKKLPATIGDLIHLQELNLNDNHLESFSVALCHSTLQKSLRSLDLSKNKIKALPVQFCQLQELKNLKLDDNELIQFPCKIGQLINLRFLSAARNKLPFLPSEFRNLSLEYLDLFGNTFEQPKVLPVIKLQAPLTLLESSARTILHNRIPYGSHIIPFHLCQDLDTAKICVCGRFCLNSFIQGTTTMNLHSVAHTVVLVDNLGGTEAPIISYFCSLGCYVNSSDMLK

In assay [2] the target is T2, SSR4-signal sequence receptor, delta (translocon-associated protein delta) (SSR4) (human, UniProt P51571 24-173, limits assumed).
T2 sequence (looked up): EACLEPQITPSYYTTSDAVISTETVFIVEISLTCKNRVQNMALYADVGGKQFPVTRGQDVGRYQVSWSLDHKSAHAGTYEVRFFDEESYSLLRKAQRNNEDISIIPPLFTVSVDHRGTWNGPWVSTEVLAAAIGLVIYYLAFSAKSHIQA

In assay [3] the target is T3, FKBP14-FK506 binding protein 14, 22 kDa (FKBP14) (human, UniProt Q9NWM8 20-211).
T3 sequence (looked up): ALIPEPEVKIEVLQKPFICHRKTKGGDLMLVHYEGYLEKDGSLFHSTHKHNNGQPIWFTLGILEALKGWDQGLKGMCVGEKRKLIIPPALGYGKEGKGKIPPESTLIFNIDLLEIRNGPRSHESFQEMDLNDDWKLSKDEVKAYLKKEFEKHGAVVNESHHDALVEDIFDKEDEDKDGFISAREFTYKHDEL

Assay [4] has as its target T4, CDK5RAP3-CDK5 regulatory subunit-associated protein 3 (human, UniProt Q96JB5 1-506, limits assumed).
T4 sequence (looked up): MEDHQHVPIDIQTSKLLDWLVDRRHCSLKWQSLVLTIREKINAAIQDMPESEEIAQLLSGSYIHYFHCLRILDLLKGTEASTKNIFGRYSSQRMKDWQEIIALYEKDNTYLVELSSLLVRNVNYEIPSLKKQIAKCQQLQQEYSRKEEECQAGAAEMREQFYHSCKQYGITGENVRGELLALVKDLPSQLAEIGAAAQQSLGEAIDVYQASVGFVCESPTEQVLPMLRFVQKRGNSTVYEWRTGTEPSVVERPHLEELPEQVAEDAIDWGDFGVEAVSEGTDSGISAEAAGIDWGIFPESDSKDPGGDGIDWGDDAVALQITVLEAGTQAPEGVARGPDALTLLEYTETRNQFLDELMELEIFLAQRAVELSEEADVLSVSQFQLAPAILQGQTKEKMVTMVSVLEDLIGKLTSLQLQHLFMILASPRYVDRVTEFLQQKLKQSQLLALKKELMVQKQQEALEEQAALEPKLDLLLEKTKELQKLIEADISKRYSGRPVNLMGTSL

Assay [5] deals with T5, CD79A-B-cell antigen receptor complex-associated protein alpha-chain (human, UniProt P11912 33-226, limits assumed).
T5 sequence (looked up): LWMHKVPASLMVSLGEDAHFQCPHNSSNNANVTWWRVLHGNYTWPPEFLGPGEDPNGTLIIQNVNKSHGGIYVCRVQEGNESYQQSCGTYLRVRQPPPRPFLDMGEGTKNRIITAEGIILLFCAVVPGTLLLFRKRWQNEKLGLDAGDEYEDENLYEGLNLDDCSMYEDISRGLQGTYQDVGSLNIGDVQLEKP

For assay [6], the target named is T6, GPX1-glutathione peroxidase 1 (GPX1) (human, UniProt P07203 1-203, limits assumed).
T6 sequence (looked up): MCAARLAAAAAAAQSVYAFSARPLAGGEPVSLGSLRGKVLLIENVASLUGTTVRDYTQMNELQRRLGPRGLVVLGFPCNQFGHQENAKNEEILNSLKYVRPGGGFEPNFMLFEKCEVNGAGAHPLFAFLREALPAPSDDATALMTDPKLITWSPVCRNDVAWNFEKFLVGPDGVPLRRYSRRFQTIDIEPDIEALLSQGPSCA

Assay [7] deals with T7, C11orf73-chromosome 11 open reading frame 73 (C11orf73) (human, UniProt Q53FT3 1-197).
T7 sequence (looked up): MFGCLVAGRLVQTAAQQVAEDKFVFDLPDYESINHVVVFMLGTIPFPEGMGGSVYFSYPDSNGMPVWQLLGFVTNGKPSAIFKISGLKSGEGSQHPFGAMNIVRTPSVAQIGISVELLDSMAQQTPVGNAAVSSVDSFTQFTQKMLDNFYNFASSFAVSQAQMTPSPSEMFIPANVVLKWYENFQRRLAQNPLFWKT

In assay [8] the target is T8, SH3YL1-SH3 domain containing, Ysc84-like 1 (S. cerevisiae) (SH3YL1) (human, UniProt Q96HL8 1-342, limits assumed).
T8 sequence (looked up): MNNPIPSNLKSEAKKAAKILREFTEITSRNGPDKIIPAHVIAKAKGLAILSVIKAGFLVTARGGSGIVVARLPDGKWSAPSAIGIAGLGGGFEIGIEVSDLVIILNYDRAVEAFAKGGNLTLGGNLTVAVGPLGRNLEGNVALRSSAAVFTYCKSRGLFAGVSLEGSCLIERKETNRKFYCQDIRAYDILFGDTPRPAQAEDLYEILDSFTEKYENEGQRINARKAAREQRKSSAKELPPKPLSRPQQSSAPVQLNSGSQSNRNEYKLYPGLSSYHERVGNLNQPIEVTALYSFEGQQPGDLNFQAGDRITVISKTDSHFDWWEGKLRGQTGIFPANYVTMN

Assay [9] concerns the target TMEM97-transmembrane protein 97 (TMEM97) (human, UniProt Q5BJF2 1-176).

Sequence of TMEM97-transmembrane protein 97 (TMEM97) (Q5BJF2 whole entry): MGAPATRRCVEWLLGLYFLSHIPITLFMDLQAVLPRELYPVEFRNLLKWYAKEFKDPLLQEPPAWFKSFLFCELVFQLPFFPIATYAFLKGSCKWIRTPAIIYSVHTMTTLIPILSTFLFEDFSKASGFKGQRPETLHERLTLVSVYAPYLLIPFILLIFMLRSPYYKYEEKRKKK

B1: 3× Flag-3×MBT (designed binder)
chain: EEWSSSQPATGEKKECWSWESYLEEQKAITAPVSLFQDSQAVTHNKNGFKLGMKLEGIDPQHPSMYFILTVAEVCGYRLRLHFDGYSECHDFWVNANSPDIHPAGWFEKTGHKLQPPKGYKEEEFSWSQYLRSTRAQAAPKHLFVSQSHSPPPLGFQVGMKLEAVDRMNPSLVCVASVTDVVDSRFLVHFDNWDDTYDYWCDPSSPYIHPVGWCQKQGKPLTPPQDYPDPDNFCWEKYLEETGASAVPTWAFKVRPPHSFLVNMKLEAVDRRNPALIRVASVEDVEDHRIKIHFDGWSHGYDFWIDADHPDIHPAGWCSKTGHPLQPPLGPREPSSASPGG
notes: also called Flag-tagged 3×MBT; 3xFlag-3xMBT; not shown: made by PreScission cleavage of GST-3× Flag-3×MBT
On to B1, for which the “GST Average SNR” value in [1] was -0.512; in [2], 1.33; in [3] it was 1.24; in [4] it was -0.34; in [5], -0.746; in assay [6], 1.22. Also, the “GST Average SNR” value in assay [7] is -1.4; in assay [8] it was 0.377; in assay [9], -1.53.
